# According to patent publication US6852907:
# Target: T1, BV1 movement protein, untagged (tomato leaf curl virus (New Delhi)) (UniProt A0A143TU21)
# T1 sequence: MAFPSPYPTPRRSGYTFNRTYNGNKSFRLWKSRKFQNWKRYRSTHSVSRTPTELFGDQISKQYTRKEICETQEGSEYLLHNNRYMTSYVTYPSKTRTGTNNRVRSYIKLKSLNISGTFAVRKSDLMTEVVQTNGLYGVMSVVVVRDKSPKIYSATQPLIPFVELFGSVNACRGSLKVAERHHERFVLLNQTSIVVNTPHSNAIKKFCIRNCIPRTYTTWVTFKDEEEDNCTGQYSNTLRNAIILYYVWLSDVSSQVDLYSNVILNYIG
# Experiment: cell_activity
# Details: ssDNA accumulation in BY2 protoplasts (indirect), range 50-121
substance,measurement,value
ToLCV-Nde A component viral ssDNA (CP-replacement constructs),binding signal (% of wild type ssDNA),86
